Measurements from the supplement of paper PMC6757056.
± gives the standard deviation of the averaged measurements.

B1: library; a variant is named by its letters at N, in order (parent)
chain: GCUGUCACCGGUGUAUUACCCUAGUGGUCGACCGGUCUGAUGAGUCUNNNNNNAGACGAAACAGC

Legend:
hypoxanthine [1] = variants of: B1; test: normalized RNA/DNA level with ligand (relative to sTRSVctl = 100) (log10 (% of sTRSVctl)); ligand: hypoxanthine (xanthine aptamer); higher = less ribozyme self-cleavage, higher mRNA level; conditions: ligand concentration (+) RNA-Seq: 5 mM, HEK293T, reporter: mCherry (pCS4076), ligand present: yes
In short: (§1)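 Library plasmids carrying ribozyme switches linked to mCherry, or to eGFP in some ligand experiments, were transfected into HEK293T at 4 µg per 6-well well, with any ligand added 1 h earlier. Seventy-two hours on, total RNA was extracted with EDTA and reverse-transcribed, amplified, barcoded and sequenced. RNA level was RNA over DNA reads normalized to a spiked-in non-cleaving sequence or to the top sequences, then scaled and log-transformed. The top set was 25 sequences, the transform was ×100 and log10, and sequences needed ≥100 DNA reads.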

hypoxanthine [2] = variants of: B1; test: normalized RNA/DNA level without ligand (relative to sTRSVctl = 100) (log10 (% of sTRSVctl)); ligand: hypoxanthine (xanthine aptamer); higher = less ribozyme self-cleavage, higher mRNA level; conditions: HEK293T, reporter: mCherry (pCS4076), ligand present: no
In short: as §1

UGUCCG
normalized RNA/DNA level with ligand (log10) (hypoxanthine [1]): 1.925 ± 0.0047
normalized RNA/DNA level without ligand (log10) (hypoxanthine [2]): 1.8 ± 0.017

UGUCCA
normalized RNA/DNA level with ligand (log10) (hypoxanthine [1]): 1.89 ± 0.061
normalized RNA/DNA level without ligand (log10) (hypoxanthine [2]): 1.88 ± 0.057

CUACGC
normalized RNA/DNA level with ligand (log10) (hypoxanthine [1]): 1.961 ± 0.011
normalized RNA/DNA level without ligand (log10) (hypoxanthine [2]): 1.913 ± 0.007

CUACGG
normalized RNA/DNA level with ligand (log10) (hypoxanthine [1]): 1.93 ± 0.047
normalized RNA/DNA level without ligand (log10) (hypoxanthine [2]): 1.98 ± 0.071

CUACGU
normalized RNA/DNA level with ligand (log10) (hypoxanthine [1]): 1.98 ± 0.067
normalized RNA/DNA level without ligand (log10) (hypoxanthine [2]): 1.9 ± 0.027

CUACGA
normalized RNA/DNA level with ligand (log10) (hypoxanthine [1]): 1.97 ± 0.034
normalized RNA/DNA level without ligand (log10) (hypoxanthine [2]): 1.87 ± 0.034

GUACCC
normalized RNA/DNA level with ligand (log10) (hypoxanthine [1]): 1.9 ± 0.045
normalized RNA/DNA level without ligand (log10) (hypoxanthine [2]): 1.8666 ± 0.0018

GUACCU
normalized RNA/DNA level with ligand (log10) (hypoxanthine [1]): 1.985 ± 0.016
normalized RNA/DNA level without ligand (log10) (hypoxanthine [2]): 1.9131 ± 0.00047

GGUAUC
normalized RNA/DNA level with ligand (log10) (hypoxanthine [1]): 1.957 ± 0.017
normalized RNA/DNA level without ligand (log10) (hypoxanthine [2]): 1.82 ± 0.013

GGUAUA
normalized RNA/DNA level with ligand (log10) (hypoxanthine [1]): 1.92 ± 0.074
normalized RNA/DNA level without ligand (log10) (hypoxanthine [2]): 1.83 ± 0.024

GGUAUU
normalized RNA/DNA level with ligand (log10) (hypoxanthine [1]): 1.973 ± 0.0023
normalized RNA/DNA level without ligand (log10) (hypoxanthine [2]): 1.88 ± 0.085

UGUCGA
normalized RNA/DNA level with ligand (log10) (hypoxanthine [1]): 1.9 ± 0.061
normalized RNA/DNA level without ligand (log10) (hypoxanthine [2]): 1.65 ± 0.049

UGUCGC
normalized RNA/DNA level with ligand (log10) (hypoxanthine [1]): 1.9324 ± 0.0018
normalized RNA/DNA level without ligand (log10) (hypoxanthine [2]): 1.89 ± 0.1

UUACCC
normalized RNA/DNA level with ligand (log10) (hypoxanthine [1]): 1.973 ± 0.0071
normalized RNA/DNA level without ligand (log10) (hypoxanthine [2]): 1.93 ± 0.064

UUACCA
normalized RNA/DNA level with ligand (log10) (hypoxanthine [1]): 1.95 ± 0.038
normalized RNA/DNA level without ligand (log10) (hypoxanthine [2]): 1.871 ± 0.008

UUACCU
normalized RNA/DNA level with ligand (log10) (hypoxanthine [1]): 1.99 ± 0.053
normalized RNA/DNA level without ligand (log10) (hypoxanthine [2]): 1.88 ± 0.029

UGUCAA
normalized RNA/DNA level with ligand (log10) (hypoxanthine [1]): 1.9 ± 0.035
normalized RNA/DNA level without ligand (log10) (hypoxanthine [2]): 1.79 ± 0.019

UGUCAC
normalized RNA/DNA level with ligand (log10) (hypoxanthine [1]): 1.9615 ± 0.00089
normalized RNA/DNA level without ligand (log10) (hypoxanthine [2]): 1.885 ± 0.012

UGUCAG
normalized RNA/DNA level with ligand (log10) (hypoxanthine [1]): 1.89 ± 0.03
normalized RNA/DNA level without ligand (log10) (hypoxanthine [2]): 1.74 ± 0.07

UGUCAU
normalized RNA/DNA level with ligand (log10) (hypoxanthine [1]): 1.939 ± 0.01
normalized RNA/DNA level without ligand (log10) (hypoxanthine [2]): 1.823 ± 0.0053

CUAAAU
normalized RNA/DNA level with ligand (log10) (hypoxanthine [1]): 1.883 ± 0.01
normalized RNA/DNA level without ligand (log10) (hypoxanthine [2]): 1.82 ± 0.03

CUAAAG
normalized RNA/DNA level with ligand (log10) (hypoxanthine [1]): 1.92 ± 0.051
normalized RNA/DNA level without ligand (log10) (hypoxanthine [2]): 1.67 ± 0.013

CUAAAA
normalized RNA/DNA level with ligand (log10) (hypoxanthine [1]): 1.88 ± 0.032
normalized RNA/DNA level without ligand (log10) (hypoxanthine [2]): 1.813 ± 0.0042

AGUCAA
normalized RNA/DNA level with ligand (log10) (hypoxanthine [1]): 1.89 ± 0.051
normalized RNA/DNA level without ligand (log10) (hypoxanthine [2]): 1.8 ± 0.035

AGUCAC
normalized RNA/DNA level with ligand (log10) (hypoxanthine [1]): 1.94 ± 0.06
normalized RNA/DNA level without ligand (log10) (hypoxanthine [2]): 1.883 ± 0.014

AGUCAG
normalized RNA/DNA level with ligand (log10) (hypoxanthine [1]): 1.86 ± 0.13
normalized RNA/DNA level without ligand (log10) (hypoxanthine [2]): 1.64 ± 0.041

GGUGGU
normalized RNA/DNA level with ligand (log10) (hypoxanthine [1]): 1.96 ± 0.084
normalized RNA/DNA level without ligand (log10) (hypoxanthine [2]): 1.86 ± 0.061

GGUGGG
normalized RNA/DNA level with ligand (log10) (hypoxanthine [1]): 1.9 ± 0.028
normalized RNA/DNA level without ligand (log10) (hypoxanthine [2]): 1.47 ± 0.056

AGUCUU
normalized RNA/DNA level with ligand (log10) (hypoxanthine [1]): 1.96 ± 0.04
normalized RNA/DNA level without ligand (log10) (hypoxanthine [2]): 1.89 ± 0.036

AGUCUA
normalized RNA/DNA level with ligand (log10) (hypoxanthine [1]): 1.924 ± 0.0097
normalized RNA/DNA level without ligand (log10) (hypoxanthine [2]): 1.836 ± 0.0084

AGUCUC
normalized RNA/DNA level with ligand (log10) (hypoxanthine [1]): 1.94 ± 0.037
normalized RNA/DNA level without ligand (log10) (hypoxanthine [2]): 1.89 ± 0.026

CGUCAC
normalized RNA/DNA level with ligand (log10) (hypoxanthine [1]): 1.96 ± 0.044
normalized RNA/DNA level without ligand (log10) (hypoxanthine [2]): 1.92 ± 0.024

CGUCAU
normalized RNA/DNA level with ligand (log10) (hypoxanthine [1]): 1.931 ± 0.0026
normalized RNA/DNA level without ligand (log10) (hypoxanthine [2]): 1.92 ± 0.029

AUAAUC
normalized RNA/DNA level with ligand (log10) (hypoxanthine [1]): 1.939 ± 0.0048
normalized RNA/DNA level without ligand (log10) (hypoxanthine [2]): 1.884 ± 0.0055

UUAAGC
normalized RNA/DNA level with ligand (log10) (hypoxanthine [1]): 1.94 ± 0.023
normalized RNA/DNA level without ligand (log10) (hypoxanthine [2]): 1.837 ± 0.0055

UUAAGU
normalized RNA/DNA level with ligand (log10) (hypoxanthine [1]): 1.936 ± 0.0026
normalized RNA/DNA level without ligand (log10) (hypoxanthine [2]): 1.847 ± 0.0087

AGUCGC
normalized RNA/DNA level with ligand (log10) (hypoxanthine [1]): 1.945 ± 0.016
normalized RNA/DNA level without ligand (log10) (hypoxanthine [2]): 1.814 ± 0.016

CGUGAG
normalized RNA/DNA level with ligand (log10) (hypoxanthine [1]): 1.85 ± 0.082
normalized RNA/DNA level without ligand (log10) (hypoxanthine [2]): 1.75 ± 0.011

CGUGAC
normalized RNA/DNA level with ligand (log10) (hypoxanthine [1]): 1.916 ± 0.0084
normalized RNA/DNA level without ligand (log10) (hypoxanthine [2]): 1.79 ± 0.04

CGUGAU
normalized RNA/DNA level with ligand (log10) (hypoxanthine [1]): 1.9 ± 0.032
normalized RNA/DNA level without ligand (log10) (hypoxanthine [2]): 1.73 ± 0.024

AUACCU
normalized RNA/DNA level with ligand (log10) (hypoxanthine [1]): 1.985 ± 0.013
normalized RNA/DNA level without ligand (log10) (hypoxanthine [2]): 1.9 ± 0.039

AUACCA
normalized RNA/DNA level with ligand (log10) (hypoxanthine [1]): 1.91 ± 0.02
normalized RNA/DNA level without ligand (log10) (hypoxanthine [2]): 1.88 ± 0.031

GUAAGU
normalized RNA/DNA level with ligand (log10) (hypoxanthine [1]): 1.94 ± 0.039
normalized RNA/DNA level without ligand (log10) (hypoxanthine [2]): 1.79 ± 0.019

GGUGCA
normalized RNA/DNA level with ligand (log10) (hypoxanthine [1]): 1.92 ± 0.043
normalized RNA/DNA level without ligand (log10) (hypoxanthine [2]): 1.88 ± 0.05

AUACGU
normalized RNA/DNA level with ligand (log10) (hypoxanthine [1]): 1.91 ± 0.032
normalized RNA/DNA level without ligand (log10) (hypoxanthine [2]): 1.84 ± 0.042

AUACGA
normalized RNA/DNA level with ligand (log10) (hypoxanthine [1]): 1.868 ± 0.018
normalized RNA/DNA level without ligand (log10) (hypoxanthine [2]): 1.7 ± 0.025

CGUGCG
normalized RNA/DNA level with ligand (log10) (hypoxanthine [1]): 1.95 ± 0.071
normalized RNA/DNA level without ligand (log10) (hypoxanthine [2]): 1.9 ± 0.027

CGUGCC
normalized RNA/DNA level with ligand (log10) (hypoxanthine [1]): 1.97 ± 0.039
normalized RNA/DNA level without ligand (log10) (hypoxanthine [2]): 1.922 ± 0.0033

UGUGCC
normalized RNA/DNA level with ligand (log10) (hypoxanthine [1]): 1.984 ± 0.0044
normalized RNA/DNA level without ligand (log10) (hypoxanthine [2]): 1.946 ± 0.019

UGUGCU
normalized RNA/DNA level with ligand (log10) (hypoxanthine [1]): 1.92 ± 0.0065
normalized RNA/DNA level without ligand (log10) (hypoxanthine [2]): 1.93 ± 0.057

UGUGCA
normalized RNA/DNA level with ligand (log10) (hypoxanthine [1]): 1.92 ± 0.031
normalized RNA/DNA level without ligand (log10) (hypoxanthine [2]): 1.86 ± 0.022

AUAGAG
normalized RNA/DNA level with ligand (log10) (hypoxanthine [1]): 1.81 ± 0.037
normalized RNA/DNA level without ligand (log10) (hypoxanthine [2]): 1.31 ± 0.019

AUAGAU
normalized RNA/DNA level with ligand (log10) (hypoxanthine [1]): 1.91 ± 0.063
normalized RNA/DNA level without ligand (log10) (hypoxanthine [2]): 1.7097 ± 0.00076

GUAACU
normalized RNA/DNA level with ligand (log10) (hypoxanthine [1]): 1.94 ± 0.03
normalized RNA/DNA level without ligand (log10) (hypoxanthine [2]): 1.878 ± 0.005

GUAACA
normalized RNA/DNA level with ligand (log10) (hypoxanthine [1]): 1.89 ± 0.0062
normalized RNA/DNA level without ligand (log10) (hypoxanthine [2]): 1.8412 ± 0.00038

GUAACC
normalized RNA/DNA level with ligand (log10) (hypoxanthine [1]): 1.9577 ± 0.00079
normalized RNA/DNA level without ligand (log10) (hypoxanthine [2]): 1.88 ± 0.089

UGUUGA
normalized RNA/DNA level with ligand (log10) (hypoxanthine [1]): 1.9 ± 0.021
normalized RNA/DNA level without ligand (log10) (hypoxanthine [2]): 1.674 ± 0.0081
